B1: Peptide 8 (Ile-Ala-Ala-Ala-Tyr-Pro) (peptide)
peptide: IAAAYP
B2: Peptide 9 (Ile-Lys-Glu-Lys-Tyr) (peptide)
peptide: IKEKY
B3: Peptide 4 (Ile-Ala-Glu-Lys-Tyr-Pro) (peptide)
peptide: IAEKYP
B4: Peptide 2 (Ile-Lys-Ala-Lys-Tyr-Pro) (peptide)
peptide: IKAKYP
B5: Peptide 1 (Ile-Lys-Glu-Lys-Tyr-Pro) (peptide)
peptide: IKEKYP
B6: Peptide 7 (Lys-His-Ile-Lys-Pro-Ser) (peptide)
peptide: KHIKPS
B7: Peptide 5 (Ser-Tyr-Glu-His-Lys-Pro) (peptide)
peptide: SYEHYP
B8: Peptide 10 (Lys-Glu-Lys) (peptide)
peptide: KEK
B9: Peptide 3 (Ile-Lys-Glu-Ala-Tyr-Pro) (peptide)
peptide: IKEAYP
B10: Peptide 6 (Ile-Ala-Glu-Ala-Tyr-Pro) (peptide)
peptide: IAEAYP

What was measured:
[1] = target: human brain inositol monophosphatase (IMPase), in postmortem crude homogenate (human) (UniProt P29218); test: cell-based or functional assay
[2] = target: T1, human recombinant calbindin D28k (human, UniProt P05937 1-261, limits assumed); test: cell-based or functional assay
T1 sequence (looked up): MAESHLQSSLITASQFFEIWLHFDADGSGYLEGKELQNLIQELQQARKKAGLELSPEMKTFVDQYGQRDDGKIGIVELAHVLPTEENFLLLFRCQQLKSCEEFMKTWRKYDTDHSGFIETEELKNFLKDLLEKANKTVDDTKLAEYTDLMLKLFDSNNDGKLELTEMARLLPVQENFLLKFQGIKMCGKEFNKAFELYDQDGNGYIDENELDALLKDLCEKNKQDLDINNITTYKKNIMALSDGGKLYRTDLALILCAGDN

Chain of human brain inositol monophosphatase (IMPase), in postmortem crude homogenate (human) (P29218 whole entry): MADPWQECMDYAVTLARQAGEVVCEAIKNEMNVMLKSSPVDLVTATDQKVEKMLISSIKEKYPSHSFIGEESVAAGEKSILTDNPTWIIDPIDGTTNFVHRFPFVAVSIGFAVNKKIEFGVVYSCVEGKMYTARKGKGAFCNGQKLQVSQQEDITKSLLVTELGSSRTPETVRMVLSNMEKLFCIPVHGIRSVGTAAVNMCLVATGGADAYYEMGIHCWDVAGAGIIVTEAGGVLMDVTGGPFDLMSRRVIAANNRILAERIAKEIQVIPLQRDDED

| Molecule | human brain IMPase activity [1] [fold] | % Inhibition of Calbindin Activation [2] [%] |
| --- | --- | --- |
| human recombinant calbindin D28k (from UniProt P05937 1-261) | 3 |  |
| B1 |  | 0 |
| B2 |  | 0 |
| B3 |  | 89 |
| B4 |  | 100 |
| B5 |  | 78 |
| B6 |  | 56 |
| B7 |  | 56 |
| B8 |  | 0 |
| B9 |  | 100 |
| B10 |  | 0 |

Source: patent publication US20110076347A1 (BEN GURION UNIVERSITY OF THE NEGEV RESEARCH AND DEVELOPMENT …, published 2011)
